Reference: patent US20260158160A1 (MACFARLANE BURNET INSTITUTE FOR MEDICAL RESEARCH AND PUBLIC …, published 2026)
“And” between values parts separate entries of the source, which are not always exact repeats. Equal entries are not always repeated. Where two headings read alike, the source gives them in different places.

B1: EflACE2-Fc-H429Y (Fc fusion)
chain: ETGSTIEEQAKYFLDKFNHEAEDLFYQSSLASWNYNTNITEENVQNMNNAGDKWSAFLKEQSTTAQMYPLQEIQNLTVKLQLQALQQNGSSVLSEDKSKRLNTILNTMSTIYSTGKVCNPDNPQECLLLEPGLNEIMANSLDYNERLWAWESWRSEVGKQLRPLYEEYVVLKNEMARANHYEDYGDYWRGDYEVNGVDGYDYSRGQLIEDVEHTFEEIKPLYEHLHAYVRAKLMNAYPSYISPIGCLPAHLLGDMWGRFWTNLYSLTVPFGQKPNIDVTDAMVDQAWDAQRIFKEAEKFFVSVGLPNMTQGFWEYSMLTDPGNVQKAVCHPTAWDLGKGDFRILMCTKVTMDDFLTAHHEMGHIQYDMAYAAQPFLLRNGANEGFHEAVGEIMSLSAATPKHLKSIGLLSPDFQEDNETEINFLLKQALTIVGTLPFTYMLEKWRWMVFKGEIPKDQWMKKWWEMKREIVGVVEPVPHDETYCDPASLFHVSNDYSFIRYYTRTLYQFQFQEALCQAAKHEGPLHKCDISNSTEAGQKLFNMLRLGKSEPWTLALENVVGAKNMNVRPLLNYFEPLFTWLKDQNKNSFVGWSTDWSPYADQSIKVRISLKSALGDRAYEWNDNEMYLFRSSVAYAMRQYFLKVKNQMILFGEEDVRVANLKPRISFNFFVTAPKNVSDIIPRTEVEKAIRMSRSRINDAFRLNDNSLEFLGIQPTLGPPNQPPVSGGGGSTHTCPPCPAPELLGGPSVFLFPPKPKDTLMISRTPEVTCVVVDVSHEDPEVKFNWYVDGVEVHNAKTKPREEQYNSTYRVVSVLTVLHQDWLNGKEYKCKVSNKALPAPIEKTISKAKGQPREPQVYTLPPSREEMTKNQVSLTCLVKGFYPSDIAVEWESNGQPENNYKTTPPVLDSDGSFFLYSKLTVDKSRWQQGNVFSCSVMYEALHNHYTQKSLSLSPGK
notes: also called EflACE2-Fc-H429Yoli; Yoli
B2: EflACE2-Fc-H429F (Fc fusion)
chain: ETGSTIEEQAKYFLDKFNHEAEDLFYQSSLASWNYNTNITEENVQNMNNAGDKWSAFLKEQSTTAQMYPLQEIQNLTVKLQLQALQQNGSSVLSEDKSKRLNTILNTMSTIYSTGKVCNPDNPQECLLLEPGLNEIMANSLDYNERLWAWESWRSEVGKQLRPLYEEYVVLKNEMARANHYEDYGDYWRGDYEVNGVDGYDYSRGQLIEDVEHTFEEIKPLYEHLHAYVRAKLMNAYPSYISPIGCLPAHLLGDMWGRFWTNLYSLTVPFGQKPNIDVTDAMVDQAWDAQRIFKEAEKFFVSVGLPNMTQGFWEYSMLTDPGNVQKAVCHPTAWDLGKGDFRILMCTKVTMDDFLTAHHEMGHIQYDMAYAAQPFLLRNGANEGFHEAVGEIMSLSAATPKHLKSIGLLSPDFQEDNETEINFLLKQALTIVGTLPFTYMLEKWRWMVFKGEIPKDQWMKKWWEMKREIVGVVEPVPHDETYCDPASLFHVSNDYSFIRYYTRTLYQFQFQEALCQAAKHEGPLHKCDISNSTEAGQKLFNMLRLGKSEPWTLALENVVGAKNMNVRPLLNYFEPLFTWLKDQNKNSFVGWSTDWSPYADQSIKVRISLKSALGDRAYEWNDNEMYLFRSSVAYAMRQYFLKVKNQMILFGEEDVRVANLKPRISFNFFVTAPKNVSDIIPRTEVEKAIRMSRSRINDAFRLNDNSLEFLGIQPTLGPPNQPPVSGGGGSTHTCPPCPAPELLGGPSVFLFPPKPKDTLMISRTPEVTCVVVDVSHEDPEVKFNWYVDGVEVHNAKTKPREEQYNSTYRVVSVLTVLHQDWLNGKEYKCKVSNKALPAPIEKTISKAKGQPREPQVYTLPPSREEMTKNQVSLTCLVKGFYPSDIAVEWESNGQPENNYKTTPPVLDSDGSFFLYSKLTVDKSRWQQGNVFSCSVMFEALHNHYTQKSLSLSPGK
notes: also called EflACE2-Fc F

Key:
[1] = molecular target: SARS-CoV-2 spike protein on virus (CoV/Australia/VIC01/2020) (SARS-CoV-2, UniProt P0DTC2 14-1273); assay: cell-based or functional assay
SARS-CoV-2 RBD-Ig [2] = molecular target: T1, SARS-CoV-2 RBD-Ig (SARS-CoV-2; mouse, UniProt P0DTC2 319-541)
[3] = molecular target: SARS-CoV-2 spike protein expressed on Ramos-S cells (SARS-CoV-2, UniProt P0DTC2 14-1273)
SARS-CoV-2 RBD-Ig [4] = molecular target: T1, SARS-CoV-2 RBD-Ig; assay: ELISA: ACE2-Fc titrated on immobilised RBD-Ig (A450), curve fit

Binder	fold of neutralisation activity over unfused trACE2 [1] [fold]	EC50 (SARS-CoV-2 RBD-Ig [2])	EC50 [3] [nM]	EC50 (SARS-CoV-2 RBD-Ig [4]) [nM]
B1	> 600	0.38 nM and 0.6 nM		
B2			2.1	0.21
